The text below walks through data of patent US20060154859A1 (YISSUM RESEARCH DEVELOPMENT COMPANY OF THE HEBREW …, published 2006).

As usually defined, the Kd is the constant that tells how readily two partners part at equilibrium. What is called koff is the first-order rate constant of dissociation. For orientation: kon means a measure of how fast the partners come together. The IC50 is the concentration at which inhibition is half-maximal. A lower IC50 goes with inhibition by little substance.

For experiment [1], the target named is T1, recombinant chicken leptin binding domain (chLBD) (chicken).
T1 construct: The 1:1 complex with leptin has a predicted mass of 40.5 kDa, so chLBD is about 24.5 kDa
Briefly: SPR (Biacore 3000), leptin mutant amine-coupled to CM5 chip, soluble chLBD as analyte, 25 C, 1:1 Langmuir fit, mean of 2 experiments. The procedure:
(v) Kinetic measurements of leptin and leptin mutants interaction with chLBD. All experiments were performed at 25° C. using surface plasmon resonance (SPR) methodology. The kinetics and equilibrium constants for the interactions between human and chicken recombinant LBD and chicken and hLep were determined using the Biacore 3000 system (Uppsala, Sweden). Leptin (human, ovine or chicken) was immobilized in a flow cell of a research-grade CM5 (carboxymethyldextran) sensor chip using amine-coupling chemistry (Johnsson et al., 1991). The immobilization steps were carried out at a flow rate of 5 μl/min in HBS-EB buffer. The surface was activated for 7 min with a mixture of 0.05 M N-hydroxysuccinimide and 0.2 M N-ethyl-N′(3-dimetylaminopropyl)-carbodiimide hydrochloride. Leptin was injected at a concentration of 50 μg/ml in 10 mM acetate, pH 3.5, until the desired level (1000 resonance units) was achieved. 1 M ethanolamine, pH 8.5, was injected for 7 min to block the remaining activated groups. A control surface was prepared by activating the carboxyl groups and then blocking the activated groups by ethanolamine as described. […] Regeneration of the surface after each interaction was performed by using 10-μl pulse of 10 mM glycine buffer, pH 2. The experiments were controlled by the kinetics Wizard of the Biacore control software, which corrects automatically for refractive index changes and non-specific binding by subtraction of the responses obtained for the control surface from the data obtained for the interactions between LBD and leptin. The obtained binding curves were fitted to the association and dissociation phases at all LBD concentrations simultaneously using Biacore evaluation software. In all cases, the best fit was obtained for a simple bimolecular interaction (Langmuir model).
To further characterize the binding capacities of chLBD with human or ovine leptins and their mutants the surface plasmon resonance (SPR) technique using respective leptin (or leptin mutant) immobilized on a sensor chip by amine coupling and binding of soluble chLBD was employed.

For experiment [2], the target named is T2, long form of human leptin receptor (human, UniProt P48357 22-1165).
T2 construct: whole, on cells; The radioreceptor assay used a homogenate of the transfected BAF/3 cells; The proliferation assay used live BAF/3 1442-CI 4 cells; also called LEPR; OB-R
T2 sequence (looked up): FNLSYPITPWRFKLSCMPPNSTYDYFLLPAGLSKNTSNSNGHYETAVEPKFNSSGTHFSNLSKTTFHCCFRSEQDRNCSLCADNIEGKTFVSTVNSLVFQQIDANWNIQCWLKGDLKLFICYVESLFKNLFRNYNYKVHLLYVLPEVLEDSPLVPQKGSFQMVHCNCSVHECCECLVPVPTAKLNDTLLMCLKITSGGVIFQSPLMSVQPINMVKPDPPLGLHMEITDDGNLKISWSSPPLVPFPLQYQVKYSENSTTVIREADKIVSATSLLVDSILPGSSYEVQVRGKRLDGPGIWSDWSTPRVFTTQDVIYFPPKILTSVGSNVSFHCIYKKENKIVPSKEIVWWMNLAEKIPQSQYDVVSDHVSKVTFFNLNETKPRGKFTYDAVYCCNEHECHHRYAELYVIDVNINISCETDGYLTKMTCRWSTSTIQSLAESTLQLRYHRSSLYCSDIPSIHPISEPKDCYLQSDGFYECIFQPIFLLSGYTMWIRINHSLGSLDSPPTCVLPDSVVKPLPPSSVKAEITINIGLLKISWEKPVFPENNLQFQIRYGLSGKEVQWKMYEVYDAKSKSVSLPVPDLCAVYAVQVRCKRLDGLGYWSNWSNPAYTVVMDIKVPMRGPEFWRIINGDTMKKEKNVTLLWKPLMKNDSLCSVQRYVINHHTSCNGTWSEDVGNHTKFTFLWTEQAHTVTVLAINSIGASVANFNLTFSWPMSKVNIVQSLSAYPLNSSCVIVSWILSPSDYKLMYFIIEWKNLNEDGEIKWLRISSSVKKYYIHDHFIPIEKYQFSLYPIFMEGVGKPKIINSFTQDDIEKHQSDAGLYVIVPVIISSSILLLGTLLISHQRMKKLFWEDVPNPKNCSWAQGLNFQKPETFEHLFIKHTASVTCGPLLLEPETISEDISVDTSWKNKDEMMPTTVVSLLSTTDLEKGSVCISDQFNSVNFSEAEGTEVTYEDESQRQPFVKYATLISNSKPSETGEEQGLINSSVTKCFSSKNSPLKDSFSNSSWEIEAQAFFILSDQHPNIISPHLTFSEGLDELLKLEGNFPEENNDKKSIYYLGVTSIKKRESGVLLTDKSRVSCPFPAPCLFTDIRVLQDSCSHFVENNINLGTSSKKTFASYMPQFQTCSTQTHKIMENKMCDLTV
Put plainly: radioreceptor competition assay against iodinated leptin, homogenate of BAF/3 cells with long form of human leptin receptor, average of two experiments. As to the method:
(vi) Binding assays. Radiolabeled ovine ¹²⁵I-leptin served as a ligand and all other nonlabeled leptins or their mutants as competitors. The experiments were conducted with homogenates of BAF/3 cells stably transfected with the long form of human leptin receptor. The cells were cultured in RPMI 1640 supplemented with 5% FCS in the -presence of IL-3 to minimize leptin receptors down-regulation till concentration of 10⁶ cells/ml was reached. Then the cells were spun and stored at −70° C. […] Each tube contained 150 μl of reaction buffer, 100 μl ¹²⁵I-human leptin (700,000-800,000 cpm) and 100 μl of different leptin solutions (providing 0-5000 ng/tube) in reaction buffer and the reaction was started by addition of 150 μl homogenate. The tubes were incubated for 18 h at room temperature. Then the leptin-receptor complex was precipitated by adding 250 μl of 1% (w/v) bovine immunoglobulin and 500 μl of 20% (w/v) polyethylene glycol. The tubes were thoroughly mixed, incubated for 30 min at 4° C., and centrifuged at 12,000 g for 15 min at 4° C. Then supernatant was carefully aspirated and the precipitates were counted in a γ counter. Human leptin was iodinated according to a protocol previously described for the iodination of hGH (Gertler et al., 1984).
Iodinated human leptin served as the ligand in all competitive experiments and the respective wild-type (WT) human and ovine leptins and their alanine mutants as competitors. Freshly prepared homogenate of BAF/3 cells stably transfected with the long form of human leptin receptor served as receptor source. Homogenate from 1.75×10⁶ cells was used per tube giving 6 to 7% specific binding.

Where a chain is given by its changes, count along the chain named. Names and notes keep the numbering of the source.

B1: human leptin L39A/D40A/F41A mutant (ligand)
chain: VPIQKVQDDTKTLIKTIVTRINDISHTQSVSSKQKVTGAAAIPGLHPILTLSKMDQTLAVYQQILTSMPSRNVIRISNDLENLRDLLHVLAFSKSCHLPWASGLETLDSLGGVLEASGYSTEVVALSRLQGSLQDMLWQLDLSPGC
notes: Expressed with an extra Met-Ala at the N-terminus, Met removed; also called L39A/D40A/F41A (human)
B1: in experiment [1], the Kd was found to be 28.5 nM, the koff came out at 0.0102 s⁻¹ and the kon stood at 358000 M⁻¹ s⁻¹. The molecule also showed a 50% inhibitory concentration (IC50) in experiment [2] of 5.21 nM.

B2: human leptin L39A/D40A/F41A/I42A mutant (ligand)
chain: B1 chain with I42A
notes: Expressed with an extra Met-Ala at the N-terminus, Met removed; also called L39A/D40A/F41A/I42A (human)
As for B2, in experiment [1], the Kd stood at 50.3 nM, the koff turned out to be 0.0068 s⁻¹ and the association rate constant (kon) turned out to be 135000 M⁻¹ s⁻¹. For the same molecule, in experiment [2], the half-inhibitory concentration (IC50) was 5.43 nM.

B3: human leptin L39A/D40A mutant (ligand)
chain: B1 chain with A41F
notes: also called L39A/D40A (human)
Consider B3, for which, in experiment [1], the Kd was 22.9 nM, the off-rate constant (koff) came out at 0.0125 s⁻¹ and the kon came out at 545000 M⁻¹ s⁻¹. The concentration for half-maximal inhibition (IC50) in experiment [2] was determined as 4.16 nM.

B4: human leptin F41A/I42A mutant (ligand)
chain: B1 chain with A39L, A40D, I42A
notes: Expressed with an extra Met-Ala at the N-terminus, Met removed; also called F41A/I42A (human)
With B4, in experiment [1], the Kd turned out to be 31.8 nM, the koff came to 0.0115 s⁻¹ and the kon came out at 362000 M⁻¹ s⁻¹. Also, in experiment [2], the half-maximal inhibitory concentration (IC50) was found to be 6.82 nM.

B5: ovine leptin L39A/D40A/F41A mutant (ligand)
chain: VSIRKVQDDTKTLIKTIVTRINDISHTQSVSSKQRVTGAAAIPGLHPLLSLSKMDQTLAIYQQILASLPSRNVIQISNDLENLRDLLHLLAASKSCPLPQVRALESLESLGVVLEASLYSTEVVALSRLQGSLQDMLRQLDLSPGC
notes: also called L39A/D40A/F41A (ovine)
Consider B5, for which, in experiment [1], the Kd stood at 13.8 nM, the koff is 0.0025 s⁻¹ and the kon was determined as 181000 M⁻¹ s⁻¹. In experiment [2], this molecule gave a half-inhibitory concentration (IC50) of 2.2 nM.

B6: ovine leptin L39A/D40A mutant (ligand)
chain: B5 chain with A41F
notes: also called L39A/D40A (ovine)
For the molecule B6, in experiment [1], the dissociation constant Kd was 24 nM, the koff was found to be 0.0057 s⁻¹ and the kon amounted to 237000 M⁻¹ s⁻¹. The molecule further had a half-inhibitory concentration (IC50) in experiment [2] of 1.83 nM.

B7: ovine leptin L39A/D40A/F41A/I42A mutant (ligand)
chain: B5 chain with I42A
notes: also called L39A/D40A/F41A/I42A (ovine)
As to B7, in experiment [1], the Kd stood at 29.3 nM, the off-rate (koff) was found to be 0.0032 s⁻¹ and the kon turned out to be 109000 M⁻¹ s⁻¹. The molecule further yielded an IC50 in experiment [2] of 1.83 nM.

B8: ovine leptin F41A/I42A mutant (ligand)
chain: B5 chain with A39L, A40D, I42A
notes: also called F41A/I42A (ovine)
On to B8, for which, in experiment [1], the Kd was 12.8 nM, the koff is 0.0032 s⁻¹ and the kon was 250000 M⁻¹ s⁻¹. Also, the IC50 in experiment [2] came to 3.44 nM.
